In US20220363770A1:

Legend:
[1] = target: human PAC1 receptor extracellular domain (ECD) (human) (UniProt P41586); test: yeast-displayed Fab, FACS, 10 nM PAC1 receptor ECD
[2] = target: human CGRP receptor extracellular domain (ECD) (human) (UniProt Q16602); test: yeast-displayed Fab, FACS, 1 nM human CGRP receptor ECD
[3] = target: human CGRP receptor extracellular domain (ECD) (human) (UniProt Q16602); test: yeast-displayed Fab, FACS, 10 nM human CGRP receptor ECD

Sequence of human PAC1 receptor extracellular domain (ECD) (human) (P41586 24-153): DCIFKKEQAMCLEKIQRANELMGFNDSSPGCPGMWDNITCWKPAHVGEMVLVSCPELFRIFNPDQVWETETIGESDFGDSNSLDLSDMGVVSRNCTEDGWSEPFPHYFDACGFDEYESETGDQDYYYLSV
Sequence of human CGRP receptor extracellular domain (ECD) (human) (Q16602 23-138 limits assumed, chain 1 of 2): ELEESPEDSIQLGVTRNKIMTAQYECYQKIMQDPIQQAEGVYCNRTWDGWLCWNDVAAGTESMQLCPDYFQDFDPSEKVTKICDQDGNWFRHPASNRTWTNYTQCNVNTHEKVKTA
Sequence of human CGRP receptor extracellular domain (ECD) (human) (chain, as listed by the source limits assumed, chain 2 of 2): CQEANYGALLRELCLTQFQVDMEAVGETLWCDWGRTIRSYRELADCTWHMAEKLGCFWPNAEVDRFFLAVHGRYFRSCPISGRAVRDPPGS

B1: anti-CGRP receptor variant 05, yeast-displayed Fab (Fab, V domains shown)
VH: QVQLVESGGGVVQPGRSLRLSCAASGFTFSSFGMHWVRQAPGKGLEWVAVISFDGSIKYSVDSVKGRFTISRDNSKNTLFLQMNSLRAEDTAVYYCARDRLNYYESSGYYHYKYYGMAVWGQGTTVTVSS
VL: QSVLTQPPSVSAAPGQKVTISCSGSFSNIGRSTVSWYQQLPGTAPKLLIYDNRWRAGGIPDRFSGSKSGTSATLGITGLQTGDEADYYCGTWDYQWKAVVFGGGTKLTVLG
- Mutant vs. 4E4.2 Parent B/D Ratio [1]: 1.8 fold
- Normalized Binding Signal/Display Signal (B/D) [1]: 0.2

B2: 4E4.2 parental Fab, yeast-displayed (Fab, V domains shown)
VH: QVQLVESGGGVVQPGRSLRLSCAASGFTFSSFGMHWVRQAPGKGLEWVAVISFDGSIKYSVDSVKGRFTISRDNSKNTLFLQMNSLRAEDTAVYYCARDRLNYYESSGYYHYKYYGMAVWGQGTTVTVSS
VL: QSVLTQPPSVSAAPGQKVTISCSGSSSNIGNNYVSWYQQLPGTAPKLLIYDNNKRPSGIPDRFSGSKSGTSATLGITGLQTGDEADYYCGTWDSRLSAVVFGGGTKLTVLG
- Mutant vs. 4E4.2 Parent B/D Ratio [1]: 1 fold
- Normalized Binding Signal/Display Signal (B/D) [1]: 0.11
- Mutant vs. 4E4.2 Parent B/D Ratio [2]: 1 fold
- Normalized Binding Signal/Display Signal (B/D) [2]: 0.12
- Mutant vs. 4E4.2 Parent B/D Ratio [3]: 1 fold
- Normalized Binding Signal/Display Signal (B/D) [3]: 0.15

B3: anti-CGRP receptor variant 12, yeast-displayed Fab (Fab, V domains shown)
VH: QVQLVESGGGVVQPGRSLRLSCAASGFTFSSFGMHWVRQAPGKGLEWVAVISFDGSIKYSVDSVKGRFTISRDNSKNTLFLQMNSLRAEDTAVYYCARDRLNYYESSGYYHYKYYGMAVWGQGTTVTVSS
VL: QSVLTQPPSVSAAPGQKVTISCSGSRSNIGRYSVSWYQQLPGTAPKLLIYDNRYRAQGIPDRFSGSKSGTSATLGITGLQTGDEADYYCGTWDWATTSVVFGGGTKLTVLG
- Mutant vs. 4E4.2 Parent B/D Ratio [1]: 1.8 fold
- Normalized Binding Signal/Display Signal (B/D) [1]: 0.19
